Biological target: human recombinant eL42-Δ(GGQTK) variant, His-tagged (human, UniProt P83881 1-106, Δ(GGQTK), residues 49-GGQTK-53 deleted)
Test: SPR; Biacore 3000; His-tagged eL42 species immobilised by amine coupling on a CM5 chip; eRF1 or EF-3 as analyte; 25°C, HBS-EP (10 mM HEPES pH 7.4, 150 mM NaCl, 3 mM EDTA, 0.005% P20), 5 µL/min; 1:1 Langmuir fit; mean of 3 experiments
Settings: both partners purified

B1: elongation factor 3 (EF-3) from S. cerevisiae, His-tagged (natural protein, UniProt P16521 1-1044, looked up)
chain: MSDSQQSIKVLEELFQKLSVATADNRHEIASEVASFLNGNIIEHDVPEHFFGELAKGIKDKKTAANAMQAVAHIANQSNLSPSVEPYIVQLVPAICTNAGNKDKEIQSVASETLISIVNAVNPVAIKALLPHLTNAIVETNKWQEKIAILAAISAMVDAAKDQVALRMPELIPVLSETMWDTKKEVKAAATAAMTKATETVDNKDIERFIPSLIQCIADPTEVPETVHLLGATTFVAEVTPATLSIMVPLLSRGLNERETGIKRKSAVIIDNMCKLVEDPQVIAPFLGKLLPGLKSNFATIADPEAREVTLRALKTLRRVGNVGEDDAIPEVSHAGDVSTTLQVVNELLKDETVAPRFKIVVEYIAAIGADLIDERIIDQQAWFTHITPYMTIFLHEKKAKDILDEFRKRAVDNIPVGPNFDDEEDEGEDLCNCEFSLAYGAKILLNKTQLRLKRARRYGICGPNGCGKSTLMRAIANGQVDGFPTQEECRTVYVEHDIDGTHSDTSVLDFVFESGVGTKEAIKDKLIEFGFTDEMIAMPISALSGGWKMKLALARAVLRNADILLLDEPTNHLDTVNVAWLVNYLNTCGITSITISHDSVFLDNVCEYIINYEGLKLRKYKGNFTEFVKKCPAAKAYEELSNTDLEFKFPEPGYLEGVKTKQKAIVKVTNMEFQYPGTSKPQITDINFQCSLSSRIAVIGPNGAGKSTLINVLTGELLPTSGEVYTHENCRIAYIKQHAFAHIESHLDKTPSEYIQWRFQTGEDRETMDRANRQINENDAEAMNKIFKIEGTPRRIAGIHSRRKFKNTYEYECSFLLGENIGMKSERWVPMMSVDNAWIPRGELVESHSKMVAEVDMKEALASGQFRPLTRKEIEEHCSMLGLDPEIVSHSRIRGLSGGQKVKLVLAAGTWQRPHLIVLDEPTNYLDRDSLGALSKALKEFEGGVIIITHSAEFTKNLTEEVWAVKDGRMTPSGHNWVSGQGAGPRIEKKEDEEDKFDAMGNKIAGGKKKKKLSSAELRKKKKERMKKKKELGDAYVSSDEEF
notes: S. cerevisiae elongation factor 3; The expression strain was a gift of Maria Mateyak; also called eEF-3; yeast EF-3; source: E. coli TKBL40 (BL21, His-tagged eEF-3 in pET11a), purified (His GraviTrap)
B1 gave a Kd of 9.2 µM.
